Results published in patent US20220235380.

Target: ALPG/P priming receptor encoded by the LG1 + FAS/PTPN2 shRNA circuits AB-1013, AB-1014 and AB-1015
Sequence (chain, as listed by the source): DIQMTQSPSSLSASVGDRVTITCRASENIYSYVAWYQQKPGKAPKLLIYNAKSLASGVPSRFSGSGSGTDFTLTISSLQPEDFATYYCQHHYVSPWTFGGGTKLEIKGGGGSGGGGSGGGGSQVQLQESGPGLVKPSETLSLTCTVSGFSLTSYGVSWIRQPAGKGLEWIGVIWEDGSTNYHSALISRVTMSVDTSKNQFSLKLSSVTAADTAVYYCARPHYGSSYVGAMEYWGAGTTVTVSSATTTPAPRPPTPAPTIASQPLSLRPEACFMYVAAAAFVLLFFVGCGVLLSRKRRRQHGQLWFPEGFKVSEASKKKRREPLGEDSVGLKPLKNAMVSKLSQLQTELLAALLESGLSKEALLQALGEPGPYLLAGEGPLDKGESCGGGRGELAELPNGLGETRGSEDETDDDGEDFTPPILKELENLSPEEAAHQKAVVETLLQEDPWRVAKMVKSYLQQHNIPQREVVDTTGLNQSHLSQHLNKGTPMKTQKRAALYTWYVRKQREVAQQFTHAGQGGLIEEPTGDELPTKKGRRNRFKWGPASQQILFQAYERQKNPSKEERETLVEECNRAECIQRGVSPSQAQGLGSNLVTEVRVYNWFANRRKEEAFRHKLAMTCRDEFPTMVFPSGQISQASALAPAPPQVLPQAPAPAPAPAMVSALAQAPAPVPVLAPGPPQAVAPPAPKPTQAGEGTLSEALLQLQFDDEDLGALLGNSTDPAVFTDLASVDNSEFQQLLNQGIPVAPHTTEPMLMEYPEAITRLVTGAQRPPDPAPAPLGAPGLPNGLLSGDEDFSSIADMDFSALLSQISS

B1: Alkaline Phosphatase, Germ Cell (ALPG), expressed on engineered K562 cells (protein)
chain: IIPVEEENPDFWNRQAAEALGAAKKLQPAQTAAKNLIIFLGDGMGVSTVTAARILKGQKKDKLGPETFLAMDRFPYVALSKTYSVDKHVPDSGATATAYLCGVKGNFQTIGLSAAARFNQCNTTRGNEVISVMNRAKKAGKSVGVVTTTRVQHASPAGAYAHTVNRNWYSDADVPASARQEGCQDIATQLISNMDIDVILGGGRKYMFPMGTPDPEYPDDYSQGGTRLDGKNLVQEWLAKHQGARYVWNRTELLQASLDPSVTHLMGLFEPGDMKYEIHRDSTLDPSLMEMTEAALLLLSRNPRGFFLFVEGGRIDHGHHESRAYRALTETIMFDDAIERAGQLTSEEDTLSLVTADHSHVFSFGGYPLRGSSIFGLAPGKARDRKAYTVLLYGNGPGYVLKDGARPDVTESESGSPEYRQQSAVPLDGETHAGEDVAVFARGPQAHLVHGVQEQTFIAHVMAFAACLEPYTACDLAPRAGTTD
% CAR Conversion, time to peak: reached a peak after around 100 hours of stimulation with the PrimeR antigen
